The source of these data is ChEMBL document CHEMBL4613261, “Metabolic and Pharmaceutical Aspects of Fluorinated Compounds” (J Med Chem, 2020).

Substrate in data set [1]: OC[C@@H]1CC[C@H](n2cnc3c(Br)ncnc32)O1
Kind of data set: (§1) Prodrug conversion in rat blood assessed as Km for adenosine deaminase-mediated didanosine formation by HPLC analysis. It counts as ADME, tissue-based.

Substrate in data set [2]: OC[C@@H]1CC[C@H](n2cnc3c(Cl)ncnc32)O1
The data set is described as §1. In kind it is ADME, tissue-based.

Substrate in data set [3]: OC[C@@H]1CC[C@H](n2cnc3c(F)ncnc32)O1
The description is as §1. In kind it is ADME, tissue-based.

Substrate in data set [4]: C[C@H](N)C(=O)O
The settings on record: Escherichia coli B.
Description: (§2) Substrate activity at Escherichia coli B alanine racemase assessed as Km

Substrate in data set [5]: N[C@@H](CF)C(=O)O
The settings on record: Escherichia coli B.
Description: as §2

Substrate in data set [6]: N[C@H](CF)C(=O)O
Conditions: Escherichia coli B.
Description: as §2

B1: (Rattus norvegicus) (protein)
chain: MAQTPAFNKPKVELHVHLDGAIKPETILYYGKKRGIDLPADTVEGLRNIIGMDKPLSLPDFLAKFDYYMPAIAGCREAIKRIAYEFVEMKAKEGVVYVEVRYSPHLLANSKVDPIPWNQAEGDLTPDEVVDLVNQGLQEGEQAFGIKVRSILCCMRHQPSWSPEVLELCKKYHQKTVVAMDLAGDETIEGSSLFPGHVEAYEGAVKDGIHRTVHAGEVGSAEVVREAVDILKTERVGHGYHTIEDEALYNRLLKENMHFEVCPWSSYLTGAWNPKTTHAVVRFKDDQANYSLNSDDPLIFKSTVDTDYQMVKKDMGFTEEEFKRLNINAAKSSFLPEDEKKELLERLYKEYQ
In the case of B1, the Michaelis constant (Km) (as a rule, the concentration of substrate that gives half-maximal velocity) came out at 16000 µM in data set [1], 17000 µM in data set [2] and 720 µM in data set [3].

B2: Alanine racemase, biosynthetic (Escherichia coli K-12), P0A6B4 (protein)
chain: MQAATVVINRRALRHNLQRLRELAPASKMVAVVKANAYGHGLLETARTLPDADAFGVARLEEALRLRAGGITKPVLLLEGFFDARDLPTISAQHFHTAVHNEEQLAALEEASLDEPVTVWMKLDTGMHRLGVRPEQAEAFYHRLTQCKNVRQPVNIVSHFARADEPKCGATEKQLAIFNTFCEGKPGQRSIAASGGILLWPQSHFDWVRPGIILYGVSPLEDRSTGADFGCQPVMSLTSSLIAVREHKAGEPVGYGGTWVSERDTRLGVVAMGYGDGYPRAAPSGTPVLVNGREVPIVGRVAMDMICVDLGPQAQDKAGDPVILWGEGLPVERIAEMTKVSAYELITRLTSRVAMKYVD
For B2, the Michaelis constant (Km) in data set [4] was 1300 µM; in data set [5], 50 µM; in data set [6], 2400 µM.
